Experimental data as given in IntAct's records for PubMed 29039417.

B1: BBSome complex member BBS2 (Homo sapiens), Q9BXC9 (parent)
chain: MLLPVFTLKLRHKISPRMVAIGRYDGTHPCLAAATQTGKVFIHNPHTRNQHVSASRVFQSPLESDVSLLSINQAVSCLTAGVLNPELGYDALLVGTQTNLLAYDVYNNSDLFYREVADGANAIVLGTLGDISSPLAIIGGNCALQGFNHEGSDLFWTVTGDNVNSLALCDFDGDGKKELLVGSEDFDIRVFKEDEIVAEMTETEIVTSLCPMYGSRFGYALSNGTVGVYDKTSRYWRIKSKNHAMSIHAFDLNSDGVNELITGWSNGKVDARSDRTGEVIFKDNFSSAIAGVVEGDYRMDGHIQLICCSVDGEIRGYLPGTAEMRGNLMDTSAEQDLIRELSQKKQNLLLELRNYEENAKAELASPLNEADGHRGIIPANTRLHTTLSVSLGNETQTAHTELRISTSNDTIIRAVLIFAEGIFTGESHVVHPSIHNLSSSICIPIVPPKDVPVDLHLKAFVGYRSSTQFHVFESTRQLPRFSMYALTSLDPASEPISYVNFTIAERAQRVVVWLGQNFLLPEDTHIQNAPFQVCFTSLRNGGHLHIKIKLSGEITINTDDIDLAGDIIQSMASFFAIEDLQVEADFPVYFEELRKVLVKVDEYHSVHQKLSADMADHSNLIRSLLVGAEDARLMRDMKTMKSRYMELYDLNRDLLNGYKIRCNNHTELLGNLKAVNQAIQRAGRLRVGKPKNQVITACRDAIRSNNINTLFKIMRVGTASS
partner: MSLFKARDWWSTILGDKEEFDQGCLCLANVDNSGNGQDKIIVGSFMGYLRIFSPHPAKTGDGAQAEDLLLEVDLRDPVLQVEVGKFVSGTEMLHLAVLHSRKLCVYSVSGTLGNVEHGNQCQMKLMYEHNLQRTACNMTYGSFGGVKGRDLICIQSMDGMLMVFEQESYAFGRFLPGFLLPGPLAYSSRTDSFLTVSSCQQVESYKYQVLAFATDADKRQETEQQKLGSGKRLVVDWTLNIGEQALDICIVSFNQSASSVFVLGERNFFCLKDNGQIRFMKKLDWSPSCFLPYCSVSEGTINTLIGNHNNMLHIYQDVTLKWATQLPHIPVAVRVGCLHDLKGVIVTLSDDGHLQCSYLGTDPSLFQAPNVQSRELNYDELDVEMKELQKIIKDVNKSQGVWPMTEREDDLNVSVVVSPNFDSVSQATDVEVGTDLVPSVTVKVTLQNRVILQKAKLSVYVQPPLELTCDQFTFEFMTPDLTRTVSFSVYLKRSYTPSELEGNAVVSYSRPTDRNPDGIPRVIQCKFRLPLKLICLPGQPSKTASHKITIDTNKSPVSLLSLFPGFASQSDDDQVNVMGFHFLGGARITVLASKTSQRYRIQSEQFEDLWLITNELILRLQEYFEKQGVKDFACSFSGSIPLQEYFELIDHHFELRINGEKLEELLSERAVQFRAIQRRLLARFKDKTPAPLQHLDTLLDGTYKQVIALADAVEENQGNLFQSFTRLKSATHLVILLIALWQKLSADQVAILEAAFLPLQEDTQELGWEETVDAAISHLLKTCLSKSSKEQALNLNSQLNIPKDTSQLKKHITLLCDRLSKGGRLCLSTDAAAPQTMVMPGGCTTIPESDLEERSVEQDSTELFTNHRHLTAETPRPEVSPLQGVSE

Variants of: B1
Conditions: with pthb1_human BBS9, Q3SYG4
For H617A, the “effect of a mutation on the interaction” value was “with no effect”. With N347K the “effect of a mutation on the interaction” value was “with no effect”. D330A was tested, and the “effect of a mutation on the interaction” value was “with no effect”. In the case of I707A, the “effect of a mutation on the interaction” value is reported as “with no effect”. L625E was tested, and the “effect of a mutation on the interaction” value was “with no effect”. For S433K, the “effect of a mutation on the interaction” value was “with no effect”. For G565K, the “effect of a mutation on the interaction” value was “with no effect”. With L337A the “effect of a mutation on the interaction” value was “with no effect”. In the case of P491K, the “effect of a mutation on the interaction” value is reported as “with no effect”. T400K was tested, and the “effect of a mutation on the interaction” value was “with no effect”. For S611K, the “effect of a mutation on the interaction” value was “with no effect”. With G462S the “effect of a mutation on the interaction” value was “disrupting interaction strength”. For G462K, the “effect of a mutation on the interaction” value was “with no effect”. R476E was tested, and the “effect of a mutation on the interaction” value was “with no effect”. With A584E the “effect of a mutation on the interaction” value was “with no effect”. With R480E the “effect of a mutation on the interaction” value was “with no effect”. In the case of L437E, the “effect of a mutation on the interaction” value is reported as “with no effect”. For A504K, the “effect of a mutation on the interaction” value was “with no effect”. In the case of E646A, the “effect of a mutation on the interaction” value is reported as “with no effect”. With L655E the “effect of a mutation on the interaction” value was “with no effect”. With L655K the “effect of a mutation on the interaction” value was “with no effect”. With I660A the “effect of a mutation on the interaction” value was “with no effect”. In the case of I660E, the “effect of a mutation on the interaction” value is reported as “with no effect”. For T502E, the “effect of a mutation on the interaction” value was “with no effect”. With L363A the “effect of a mutation on the interaction” value was “with no effect”. In the case of L363E, the “effect of a mutation on the interaction” value is reported as “with no effect”. For F574K, the “effect of a mutation on the interaction” value was “with no effect”. F711K was tested, and the “effect of a mutation on the interaction” value was “with no effect”. In the case of F711A, the “effect of a mutation on the interaction” value is reported as “with no effect”. With H470E the “effect of a mutation on the interaction” value was “with no effect”. For A612E, the “effect of a mutation on the interaction” value was “with no effect”. With P521A the “effect of a mutation on the interaction” value was “with no effect”. For P444E, the “effect of a mutation on the interaction” value was “with no effect”. For A507K, the “effect of a mutation on the interaction” value was “with no effect”. For L580K, the “effect of a mutation on the interaction” value was “with no effect”. With R509K the “effect of a mutation on the interaction” value was “with no effect”. In the case of P690K, the “effect of a mutation on the interaction” value is reported as “with no effect”. With K360E the “effect of a mutation on the interaction” value was “with no effect”. For I445Q, the “effect of a mutation on the interaction” value was “disrupting interaction strength”. In the case of E357K, the “effect of a mutation on the interaction” value is reported as “with no effect”. R681E was tested, and the “effect of a mutation on the interaction” value was “with no effect”. For D454K, the “effect of a mutation on the interaction” value was “with no effect”. I377T was tested, and the “effect of a mutation on the interaction” value was “disrupting interaction strength”. With T410E the “effect of a mutation on the interaction” value was “with no effect”. In the case of H607E, the “effect of a mutation on the interaction” value is reported as “with no effect”. C662E was tested, and the “effect of a mutation on the interaction” value was “with no effect”. In the case of C662A, the “effect of a mutation on the interaction” value is reported as “with no effect”. In the case of S427E, the “effect of a mutation on the interaction” value is reported as “with no effect”. H431A was tested, and the “effect of a mutation on the interaction” value was “with no effect”. With L668E the “effect of a mutation on the interaction” value was “with no effect”. In the case of L668K, the “effect of a mutation on the interaction” value is reported as “with no effect”. For S405A, the “effect of a mutation on the interaction” value was “with no effect”. In the case of R374K, the “effect of a mutation on the interaction” value is reported as “with no effect”. S551A was tested, and the “effect of a mutation on the interaction” value was “with no effect”. For I567K, the “effect of a mutation on the interaction” value was “with no effect”. R643E was tested, and the “effect of a mutation on the interaction” value was “with no effect”. With R539E the “effect of a mutation on the interaction” value was “with no effect”. With K345A the “effect of a mutation on the interaction” value was “with no effect”. In the case of I695A, the “effect of a mutation on the interaction” value is reported as “with no effect”. For A678K, the “effect of a mutation on the interaction” value was “with no effect”. In the case of L620A, the “effect of a mutation on the interaction” value is reported as “with no effect”. V471E was tested, and the “effect of a mutation on the interaction” value was “with no effect”. I417K was tested, and the “effect of a mutation on the interaction” value was “with no effect”. For T386K, the “effect of a mutation on the interaction” value was “with no effect”. With T386A the “effect of a mutation on the interaction” value was “with no effect”. In the case of G541E, the “effect of a mutation on the interaction” value is reported as “with no effect”. In the case of H545A, the “effect of a mutation on the interaction” value is reported as “with no effect”. H545K was tested, and the “effect of a mutation on the interaction” value was “with no effect”. For Q335E, the “effect of a mutation on the interaction” value was “with no effect”. Q335A was tested, and the “effect of a mutation on the interaction” value was “with no effect”. With I713A the “effect of a mutation on the interaction” value was “with no effect”. With I713E the “effect of a mutation on the interaction” value was “with no effect”. In the case of L610K, the “effect of a mutation on the interaction” value is reported as “with no effect”. F586K was tested, and the “effect of a mutation on the interaction” value was “with no effect”. With K609A the “effect of a mutation on the interaction” value was “with no effect”. For A492E, the “effect of a mutation on the interaction” value was “with no effect”. With G683E the “effect of a mutation on the interaction” value was “with no effect”. With G375E the “effect of a mutation on the interaction” value was “disrupting interaction strength”. F590K was tested, and the “effect of a mutation on the interaction” value was “with no effect”. In the case of G421E, the “effect of a mutation on the interaction” value is reported as “with no effect”. For Y603E, the “effect of a mutation on the interaction” value was “with no effect”. In the case of M571K, the “effect of a mutation on the interaction” value is reported as “with no effect”. In the case of L593E, the “effect of a mutation on the interaction” value is reported as “with no effect”. For T639K, the “effect of a mutation on the interaction” value was “with no effect”. With E340K the “effect of a mutation on the interaction” value was “with no effect”. L348E was tested, and the “effect of a mutation on the interaction” value was “with no effect”. With D613K the “effect of a mutation on the interaction” value was “with no effect”. L486E was tested, and the “effect of a mutation on the interaction” value was “with no effect”. With Q693A the “effect of a mutation on the interaction” value was “with no effect”. A682E was tested, and the “effect of a mutation on the interaction” value was “with no effect”.
